Experimental data reported in patent publication US10428140B2, “Anti-EphA4 antibody” (EISAI R&D MANAGEMENT CO., LTD., priority 2015, dated 2019).

T1: human EphB1 (Homo sapiens, UniProt P54762)
T1 construct: a protein of the extracellular region of each human Eph receptor fused with the SEAP protein and the His tag; made in house; host or cells: Expi293F cells (culture supernatant)
T1 sequence (P54762 18-540 limits assumed): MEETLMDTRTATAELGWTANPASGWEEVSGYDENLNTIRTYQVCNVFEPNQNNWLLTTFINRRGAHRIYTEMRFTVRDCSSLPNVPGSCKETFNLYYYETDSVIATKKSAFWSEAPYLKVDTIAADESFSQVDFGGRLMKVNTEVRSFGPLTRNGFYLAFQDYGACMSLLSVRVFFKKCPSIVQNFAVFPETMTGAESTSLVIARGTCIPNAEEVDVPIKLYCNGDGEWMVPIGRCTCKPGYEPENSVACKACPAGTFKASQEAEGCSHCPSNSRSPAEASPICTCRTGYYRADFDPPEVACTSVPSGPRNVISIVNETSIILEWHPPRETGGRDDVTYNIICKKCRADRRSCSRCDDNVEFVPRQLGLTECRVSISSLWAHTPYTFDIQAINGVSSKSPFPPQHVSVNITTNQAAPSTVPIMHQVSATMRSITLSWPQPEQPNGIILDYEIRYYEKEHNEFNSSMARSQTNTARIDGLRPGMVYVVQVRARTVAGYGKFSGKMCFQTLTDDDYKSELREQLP

T2: human EphA8 (Homo sapiens, UniProt P29322)
T2 construct: a protein of the extracellular region of each human Eph receptor fused with the SEAP protein and the His tag; made in house; host or cells: Expi293F cells (culture supernatant)
T2 sequence (P29322 28-542 limits assumed): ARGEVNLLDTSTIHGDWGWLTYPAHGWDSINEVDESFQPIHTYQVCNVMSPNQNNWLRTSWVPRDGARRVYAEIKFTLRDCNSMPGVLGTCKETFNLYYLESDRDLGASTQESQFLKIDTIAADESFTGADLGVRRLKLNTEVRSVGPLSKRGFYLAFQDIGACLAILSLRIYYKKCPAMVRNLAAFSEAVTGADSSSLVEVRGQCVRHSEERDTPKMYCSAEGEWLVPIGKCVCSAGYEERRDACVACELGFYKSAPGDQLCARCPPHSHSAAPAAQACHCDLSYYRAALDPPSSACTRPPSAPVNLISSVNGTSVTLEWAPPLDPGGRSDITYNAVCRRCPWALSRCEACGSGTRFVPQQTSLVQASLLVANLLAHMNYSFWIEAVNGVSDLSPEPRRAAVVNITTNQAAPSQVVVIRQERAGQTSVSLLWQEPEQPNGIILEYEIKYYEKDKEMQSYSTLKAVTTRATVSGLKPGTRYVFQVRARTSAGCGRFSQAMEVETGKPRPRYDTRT

T3: human EphA1 (Homo sapiens, UniProt P21709)
T3 construct: a protein of the extracellular region of each human Eph receptor fused with the SEAP protein and the His tag; made in house; host or cells: Expi293F cells (culture supernatant)
T3 sequence (P21709 26-547 limits assumed): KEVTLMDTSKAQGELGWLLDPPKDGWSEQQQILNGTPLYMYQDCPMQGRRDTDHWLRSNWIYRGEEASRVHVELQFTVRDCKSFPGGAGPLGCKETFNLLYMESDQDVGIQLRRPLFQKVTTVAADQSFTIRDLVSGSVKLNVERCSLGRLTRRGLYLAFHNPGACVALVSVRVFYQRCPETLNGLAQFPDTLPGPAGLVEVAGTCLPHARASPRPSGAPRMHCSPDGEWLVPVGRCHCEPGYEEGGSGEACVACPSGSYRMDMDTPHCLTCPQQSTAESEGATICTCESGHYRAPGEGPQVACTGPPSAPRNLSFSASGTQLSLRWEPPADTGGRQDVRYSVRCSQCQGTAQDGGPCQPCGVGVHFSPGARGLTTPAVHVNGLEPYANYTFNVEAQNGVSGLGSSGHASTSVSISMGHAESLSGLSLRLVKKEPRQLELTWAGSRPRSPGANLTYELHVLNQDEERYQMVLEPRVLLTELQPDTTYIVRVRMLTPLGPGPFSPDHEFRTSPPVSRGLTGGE


Columns and labels:
Test in all cases: Selectivity ELISA of humanized antibodies for human Eph receptor
Assay type in all cases: binding
Details in all cases: coated protein 1 nM
human EphB1 = target: T1, human EphB1
Outline: (§1)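 Human Eph ECD-SEAP-His fusions, harvested after 5 days of Expi293F expression, are captured on anti-His-coated wells (1 nM final). Bound humanized antibody is detected with HRP anti-IgG and TMB at 450 nm.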

human EphA8 = target: T2, human EphA8
Outline: as §1

human EphA1 = target: T3, human EphA1
Outline: as §1

Row | hEphB1-SEAP-: absorbance at 450 nm, percentage with respect to hEphA4-SEAP-His as 100% (human EphB1) [%] | hEphA8-SEAP-: absorbance at 450 nm, percentage with respect to hEphA4-SEAP-His as 100% (human EphA8) [%] | hEphA1-SEAP-: absorbance at 450 nm, percentage with respect to hEphA4-SEAP-His as 100% (human EphA1) [%] | Molecule
1 | 4.8 | 4.7 | 4.8 | 132 (antibody, V domains shown, synthetic humanized antibody heavy chain variable region sequence; synthetic humanized antibody light chain variable region sequence) VH: QIQLVQSGSELKKPGASVKVSCKASGYTFTDYSMHWVRQAPGQGLKWMGWINTETGEPTYAQGFTGRFVFSLDTSVSTAYLQISSLKAEDTAVYYCARIPLYYYGSRYWYFDVWGQGTTVTVSS VL: EIVMTQSPATLSVSPGERATLSCRASENIYRNLAWYQQKPGQSPRLLIYAATNLADGIPARFSGSGSGTEYTLTISSLQSEDFAVYYCQHFWGTPWTFGQGTKVEIK
2 | 5.0 | 5.4 | 6.6 | 78 (antibody, V domains shown, synthetic humanized antibody heavy chain variable region sequence; synthetic humanized antibody light chain variable region sequence) VH: QVQLVQSGSELKKPGASVKVSCKASGYTFTDYSMHWVRQAPGQGLKWMGWINTETGEPTYADDFKGRFVFSLDTSVSTAYLQISSLKAEDTAVYYCARIPLYYYGSRYWYFDVWGQGTTVTVSS VL: DIQMTQSPSSLSASVGDRVTITCRASENIYRNLAWYQQKPGKAPKLLVYAATNLADGVPSRFSGSGSGTDYTLTISSLQPEDFATYYCQHFWGTPWTFGQGTKVEIK
3 | 5.1 | 5.0 | 5.2 | 135 (antibody, V domains shown, synthetic humanized antibody heavy chain variable region sequence; synthetic humanized antibody light chain variable region sequence) VH: QVQLVQSGSELKKPGASVKVSCKASGYTFTDYSMHWVRQAPGQGLEWMGWINTETGEPTYADDFKGRFVFSLDTSVSTAYLQISSLKAEDTAVYYCARIPLYYYGSRYWYFDVWGQGTTVTVSS VL: EIVMTQSPATLSVSPGERATLSCRASENIYRNLAWYQQKPGQSPRLLIYAATNLADGIPARFSGSGSGTEYTLTISSLQSEDFAVYYCQHFWGTPWTFGQGTKVEIK

The remaining lines, values behind:

Row | Molecule | hEphB1-SEAP-: absorbance at 450 nm, percentage with respect to hEphA4-SEAP-His as 100% (human EphB1) [%] | hEphA8-SEAP-: absorbance at 450 nm, percentage with respect to hEphA4-SEAP-His as 100% (human EphA8) [%] | hEphA1-SEAP-: absorbance at 450 nm, percentage with respect to hEphA4-SEAP-His as 100% (human EphA1) [%]
4 | 134 (antibody, V domains shown, synthetic humanized antibody heavy chain variable region sequence; synthetic humanized antibody light chain variable region sequence) VH: QVQLVQSGSELKKPGASVKVSCKASGYTFTDYSMHWVRQAPGQGLKWMGWINTETGEPTYAQGFTGRFVFSLDTSVSTAYLQISSLKAEDTAVYYCARIPLYYYGSRYWYFDVWGQGTTVTVSS VL: EIVMTQSPATLSVSPGERATLSCRASENIYRNLAWYQQKPGQSPRLLIYAATNLADGIPARFSGSGSGTEYTLTISSLQSEDFAVYYCQHFWGTPWTFGQGTKVEIK | 5.1 | 5.7 | 5.1
5 | 77 (antibody, V domains shown, synthetic humanized antibody heavy chain variable region sequence; synthetic humanized antibody light chain variable region sequence) VH: QVQLVQSGSELKKPGASVKVSCKASGYTFTDYSMHWVRQAPGQGLEWMGWINTETGEPTYADDFKGRFVFSLDTSVSTAYLQISSLKAEDTAVYYCARIPLYYYGSRYWYFDVWGQGTTVTVSS VL: DIQMTQSPSSLSASVGDRVTITCRASENIYRNLAWYQQKPGKAPKLLVYAATNLADGVPSRFSGSGSGTDYTLTISSLQPEDFATYYCQHFWGTPWTFGQGTKVEIK | 4.6 | 4.8 | 4.5
6 | 75 (antibody, synthetic humanized antibody heavy chain variable region sequence; synthetic humanized antibody light chain variable region sequence; synthetic antibody constant region sequence) VH: QVQLVQSGSELKKPGASVKVSCKASGYTFTDYSMHWVRQAPGQGLEWMGWINTETGEPTYAQGFTGRFVFSLDTSVSTAYLQISSLKAEDTAVYYCARIPLYYYGSRYWYFDVWGQGTTVTVSS VL: DIQMTQSPSSLSASVGDRVTITCRASENIYRNLAWYQQKPGKAPKLLVYAATNLADGVPSRFSGSGSGTDYTLTISSLQPEDFATYYCQHFWGTPWTFGQGTKVEIK ASTKGPSVFPLAPSSKSTSGGTAALGCLVKDYFPEPVTVSWNSGALTSGVHTFPAVLQSSGLYSLSSVVTVPSSSLGTQTYICNVNHKPSNTKVDKRVEPKSCDKTHTCPPCPAPPAAAPSVFLFPPKPKDTLMISRTPEVTCVVVDVSHEDPEVQFNWYVDGVEVHNAKTKPREEQFNSTFRVVSVLTVVHQDWLNGKEYKCKVSNKGLPAPIEKTISKTKGQPREPQVYTLPPSREEMTKNQVSLTCLVKGFYPSDIAVEWESNGQPENNYKTTPPMLDSDGSFFLYSKLTVDKSRWQQGNVFSCSVMHEALHNHYTQKSLSLSPG | 4.4 | 4.8 | 4.7
7 | 67 (antibody, V domains shown, synthetic humanized antibody heavy chain variable region sequence; synthetic humanized antibody light chain variable region sequence) VH: QIQLVQSGSELKKPGASVKVSCKASGYTFTDYSMHWVRQAPGQGLKWMGWINTETGEPTYAQGFTGRFVFSLDTSVSTAYLQISSLKAEDTAVYYCARIPLYYYGSRYWYFDVWGQGTTVTVSS VL: DIQMTQSPSSLSASVGDRVTITCRASENIYRNLAWYQQKPGKAPKLLVYAATNLADGVPSRFSGSGSGTDYTLTISSLQPEDFATYYCQHFWGTPWTFGQGTKVEIK | 4.6 | 4.7 | 4.6
8 | 76 (antibody, V domains shown, synthetic humanized antibody heavy chain variable region sequence; synthetic humanized antibody light chain variable region sequence) VH: QVQLVQSGSELKKPGASVKVSCKASGYTFTDYSMHWVRQAPGQGLKWMGWINTETGEPTYAQGFTGRFVFSLDTSVSTAYLQISSLKAEDTAVYYCARIPLYYYGSRYWYFDVWGQGTTVTVSS VL: DIQMTQSPSSLSASVGDRVTITCRASENIYRNLAWYQQKPGKAPKLLVYAATNLADGVPSRFSGSGSGTDYTLTISSLQPEDFATYYCQHFWGTPWTFGQGTKVEIK | 4.9 | 5.5 | 5.1
